Patent US20100216975A1

How the values were obtained:
[1] = molecular target: Human EphA2-Fc fusion protein (human EphA2 fused with the Fc portion of a human IgG1) (human) (UniProt P29317); assay: single point ELISA: periplasmic Fab captured on 100 ng goat anti-human Fab, biotinylated human EphA2-Fc, neutravidin-HRP
[2] = molecular target: Human EphA2-Fc fusion protein (human EphA2 fused with the Fc portion of a human IgG1) (human) (UniProt P29317); assay: single point ELISA, 500 ng goat anti-human Fab capture, biotinylated EphA2-Fc; plate of clone VH-6H11/VL-8G7
[3] = molecular target: Human EphA2-Fc fusion protein (human EphA2 fused with the Fc portion of a human IgG1) (human) (UniProt P29317); assay: single point ELISA, 500 ng goat anti-human Fab capture, biotinylated EphA2-Fc; plate of clone VH-7E8/VL-8G7
[4] = molecular target: Human EphA2-Fc fusion protein (human EphA2 fused with the Fc portion of a human IgG1) (human) (UniProt P29317); assay: single point ELISA: periplasmic Fab captured on 500 ng goat anti-human Fab, biotinylated human EphA2-Fc, neutravidin-HRP
[5] = molecular target: Human EphA2-Fc fusion protein (human EphA2 fused with the Fc portion of a human IgG1) (human) (UniProt P29317); assay: single point ELISA, 500 ng goat anti-human Fab capture, biotinylated EphA2-Fc; plate of clone VH-233/VL-12C8
[6] = molecular target: Human EphA2-Fc fusion protein (human EphA2 fused with the Fc portion of a human IgG1) (human) (UniProt P29317); assay: single point ELISA: periplasmic Fab captured on 500 ng goat anti-human Fab, biotinylated human EphA2-Fc, neutravidin-HRP; remark: listed apart in the source
[7] = molecular target: Human EphA2-Fc fusion protein (human EphA2 fused with the Fc portion of a human IgG1) (human) (UniProt P29317); assay: as above; remark: listed apart in the source
[8] = molecular target: Human EphA2-Fc fusion protein (human EphA2 fused with the Fc portion of a human IgG1) (human) (UniProt P29317); assay: single point ELISA, 500 ng goat anti-human Fab capture, biotinylated EphA2-Fc; plate of clone VH-233/VL-8G7
[9] = molecular target: Human EphA2-Fc fusion protein (human EphA2 fused with the Fc portion of a human IgG1) (human) (UniProt P29317); assay: single point ELISA: periplasmic Fab captured on 20 ng goat anti-human Fab, biotinylated human EphA2-Fc, neutravidin-HRP
[10] = molecular target: Human EphA2-Fc fusion protein (human EphA2 fused with the Fc portion of a human IgG1) (human) (UniProt P29317); assay: single point ELISA, 500 ng goat anti-human Fab capture, biotinylated EphA2-Fc; plate of clone VH-2G6/VL-12C8
[11] = molecular target: Human EphA2-Fc fusion protein (human EphA2 fused with the Fc portion of a human IgG1) (human) (UniProt P29317); assay: SPR (BIAcore 3000), IgG over immobilized EphA2-Fc (~500 RU), 1:1 Langmuir fit
[12] = molecular target: Human EphA2-Fc fusion protein (human EphA2 fused with the Fc portion of a human IgG1) (human) (UniProt P29317); assay: SPR (BIAcore 3000), IgG over immobilized EphA2-Fc, 1:1 Langmuir fit

Sequence of Human EphA2-Fc fusion protein (human EphA2 fused with the Fc portion of a human IgG1) (human) (P29317 24-534 limits assumed): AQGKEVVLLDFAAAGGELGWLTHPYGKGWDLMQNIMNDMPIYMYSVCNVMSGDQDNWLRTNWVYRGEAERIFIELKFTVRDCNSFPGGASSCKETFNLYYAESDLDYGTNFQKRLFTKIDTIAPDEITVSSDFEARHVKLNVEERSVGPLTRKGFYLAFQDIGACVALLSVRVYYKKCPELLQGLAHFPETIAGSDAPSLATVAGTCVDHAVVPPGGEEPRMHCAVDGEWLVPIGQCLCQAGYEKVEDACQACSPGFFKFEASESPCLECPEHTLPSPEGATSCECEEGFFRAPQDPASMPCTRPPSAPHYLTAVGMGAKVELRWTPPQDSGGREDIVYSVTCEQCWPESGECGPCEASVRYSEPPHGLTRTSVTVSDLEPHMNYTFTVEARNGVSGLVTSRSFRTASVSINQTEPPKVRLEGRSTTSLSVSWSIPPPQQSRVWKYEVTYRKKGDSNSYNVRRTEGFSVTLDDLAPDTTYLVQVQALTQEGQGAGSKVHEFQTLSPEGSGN

**Q.** Which results are given for irrelevant antibody (MEDI-493)?
**A.** OD450 (background signal) [1]: 0.1 to 0.4; OD450 (background signal) [2]: 0.2; OD450 (background signal) [3]: 0.2; OD450 (background signal) [4]: 0.3; OD450 (background signal) [5]: 0.1; OD450 (background signal) [6]: 0.07 to 0.1; OD450 (background signal) [7]: 0.06 to 0.2; OD450 (background signal) [8]: 0.2; OD450 (background signal) [9]: 0.1; OD450 (background signal) [10]: 0.3

B1: mouse anti-human EphA2 monoclonal antibody EA2 (antibody, from a related filing, V domains shown)
VH: DVKLVESGGGLVKPGGSLKLSCAASGFTFSSYTMSWVRQTPEKRLEWVATISSGGTYTYYPDSVKGRFTISRDNAKNTLYLQMSSLKSEDTAMYYCTREAIFTYWGQGTLVTVSA
VL: DIKMTQSPSSMYASLGERVTITCKASQDINNYLSWFQQKPGKSPKTLIYRANRLVDGVPSRFSGSGSGQDYSLTISSLEYEDMGIYYCLKYDEFPYTFGGGTKLEIK
**Q.** With B1 as the molecule, how does the Kd [11] read?
**A.** 5.94 nM

**Q.** What about the koff [11] of the same molecule?
**A.** 0.00307 s⁻¹

**Q.** What about the kon [11] of the same molecule?
**A.** 517000 M⁻¹ s⁻¹

B2: mouse anti-human EphA2 monoclonal antibody B233 (antibody, from a related filing, V domains shown)
VH: EVKLVESGGGLVQPGGSLSLSCAASGFTFTDYSMNWVRQPPGKALEWLGFIRNKANDYTTEYSASVKGRFTISRDNSQSILYLQMNALRAEDSATYYCVRYPRYHAMDSWGQGTSVTVSS
VL: DIVLTQSPATLSVTPGDSVNLSCRASQSISNNLHWYQQKSHESPRLLIKYVFQSISGIPSRFSGSGSGTDFTLSINSVETEDFGMYFCQQSNSWPLTFGAGTKLELK
**Q.** B2 was tested. Which Kd [12] did it give?
**A.** 0.4 nM

**Q.** What about the koff [12] of the same molecule?
**A.** 0.00011 s⁻¹

**Q.** What about the kon [12] of the same molecule?
**A.** 280000 M⁻¹ s⁻¹

B3: chimaeric form of mAb B233 (VH-233/VL-233) as full length human IgG1 (antibody, from a related filing, V domains shown)
VH: B2 VH
VL: B2 VL
**Q.** B3 was tested. Which Kd [12] did it give?
**A.** 0.3 nM

**Q.** What about the koff [12] of the same molecule?
**A.** 8e-05 s⁻¹

**Q.** What about the kon [12] of the same molecule?
**A.** 240000 M⁻¹ s⁻¹
